Experimental data as given in the supplement of paper PMC10724198.
± gives the standard deviation of the averaged measurements.

Legend:
Saccharomyces cerevisiae [1] = assay: protein stability index of tFT-peptide fusion (C-terminal peptide) (PSI (0-1 scale)); higher = more stable (slower turnover); settings: genetic background: wild type; temperature: 30 C
Saccharomyces cerevisiae [2] = assay: as above
Procedure: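 MPS profiling in S. cerevisiae of the tFT-X12 degron library: putative degron peptides plus stable controls, 12 aa, fused to the C-terminus of a sfGFP-mCherry timer. Cells are FACS-sorted into 8 mCherry/sfGFP bins and deep-sequenced. PSI runs from 0 (unstable) to 1 (stable). Backgrounds are wild type, das1Δ and doa10Δ at 30 °C, and wild type, das1Δ, cdc34-1 and cdc53-1 at 37 °C; 2-3 technical replicates each.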

[3] = genetic background: cdc34-1, temperature: 37 C
[4] = genetic background: cdc53-1, temperature: 37 C
[5] = genetic background: das1 deletion, temperature: 30 C
[6] = genetic background: das1 deletion, temperature: 37 C
[7] = genetic background: doa10 deletion, temperature: 30 C
[8] = genetic background: wild type, temperature: 30 C
[9] = genetic background: wild type, temperature: 37 C
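Further: PSI is a weighted mean of sequencing reads over stability bins, variants kept only with over 10 reads, mCherry proximal and sfGFP distal, peptide attached via GGGS linker.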

| Sequence | protein stability index (Saccharomyces cerevisiae [1]) | protein stability index (Saccharomyces cerevisiae [2]; [3]) | protein stability index (Saccharomyces cerevisiae [2]; [4]) | protein stability index (Saccharomyces cerevisiae [2]; [5]) | protein stability index (Saccharomyces cerevisiae [2]; [6]) | protein stability index (Saccharomyces cerevisiae [2]; [7]) | protein stability index (Saccharomyces cerevisiae [2]; [8]) | protein stability index (Saccharomyces cerevisiae [2]; [9]) |
| --- | --- | --- | --- | --- | --- | --- | --- | --- |
| SLARPGLCFVIA | 0.417 ± 0.034 | 0.534 ± 0.002 | 0.583 ± 0.018 | 0.356 ± 0.029 | 0.569 ± 0.011 | 0.311 ± 0.019 | 0.342 ± 0.026 | 0.543 ± 0.029 |
| ALHGTVRNWQRQ | 0.39 ± 0.015 | 0.673 ± 0.066 | 0.701 ± 0.059 | 0.63 ± 0.035 | 0.696 ± 0.011 | 0.191 ± 0.016 | 0.245 ± 0.0071 | 0.535 ± 0.04 |
| RRQLVLVLSWVI | 0.377 ± 0.025 | 0.466 ± 0.017 | 0.508 ± 0.018 | 0.346 ± 0.027 | 0.507 ± 0.019 | 0.299 ± 0.013 | 0.322 ± 0.017 | 0.506 ± 0.067 |
| IKIQPKKRISLI | 0.299 ± 0.0067 | 0.658 ± 0.056 | 0.707 ± 0.058 | 0.632 ± 0.039 | 0.702 ± 0.017 | 0.155 ± 0.0043 | 0.174 ± 0.043 | 0.391 ± 0.031 |
| WVVVLFAYRGLR | 0.458 ± 0.088 | 0.57 ± 0.026 | 0.519 ± 0.12 | 0.362 ± 0.031 | 0.57 ± 0.038 | 0.323 ± 0.02 | 0.379 ± 0.037 | 0.559 ± 0.041 |
| LGPLGWLVLLLV | 0.292 ± 0.035 | 0.415 ± 0.012 | 0.425 ± 0.014 | 0.353 ± 0.022 | 0.483 ± 0.0058 | 0.23 ± 0.015 | 0.22 ± 0.021 | 0.354 ± 0.0068 |
| GCDVWCLVLRMG | 0.47 ± 0.018 | 0.651 ± 0.016 | 0.68429 ± 0.00024 | 0.517 ± 0.0083 | 0.676 ± 0.031 | 0.418 ± 0.013 | 0.435 ± 0.019 | 0.63 ± 0.025 |
| LFFFLVWSLSVF | 0.0314 ± 0.029 | 0.0262 ± 0.0035 | 0.0512 ± 0.0066 | 0.0353 ± 0.011 | 0.0635 ± 0.02 | 0.0187 ± 0.0092 | 0.0205 ± 0.0042 | 0.0395 ± 0.013 |
| PVHARYCSLKWA | 0.373 ± 0.087 | 0.658 ± 0.037 | 0.741 ± 0.021 | 0.6329 ± 0.0026 | 0.7389 ± 0.0042 | 0.237 ± 0.036 | 0.279 ± 0.013 | 0.5159 ± 0.0024 |
| FNFFFSSVFLLV | 0.299 ± 0.015 | 0.3037 ± 0.0011 | 0.252 ± 0.025 | 0.342 ± 0.048 | 0.436 ± 0.051 | 0.3 ± 0.022 | 0.19 ± 0.02 | 0.334 ± 0.029 |
| CSLFYVFYRRLL | 0.38 ± 0.0078 | 0.595 ± 0.026 | 0.665 ± 0.012 | 0.556 ± 0.0087 | 0.649 ± 0.01 | 0.285 ± 0.011 | 0.342 ± 0.051 | 0.5212 ± 0.0043 |
| VNTLCCVFRCNL | 0.805 ± 0.045 | 0.96 ± 0.0047 | 0.9524 ± 0.0023 | 0.816 ± 0.013 | 0.889 ± 0.026 | 0.8247 ± 0.0043 | 0.826 ± 0.028 | 0.8905 ± 0.0035 |
| WLLVVCRGLVFR | 0.319 ± 0.046 | 0.227 ± 0.0051 | 0.228 ± 0.024 | 0.25 ± 0.036 | 0.4124 ± 0.0027 | 0.329 ± 0.023 | 0.236 ± 0.022 | 0.405 ± 0.018 |
| SVAGFFLLLLLS | 0.285 ± 0.012 | 0.3561 ± 0.0034 | 0.397 ± 0.0096 | 0.305 ± 0.036 | 0.487 ± 0.02 | 0.191 ± 0.0079 | 0.193 ± 0.029 | 0.338 ± 0.0072 |
| CPFLTLLISLDV | 0.478 ± 0.011 | 0.52 ± 0.034 | 0.555 ± 0.044 | 0.411 ± 0.032 | 0.531 ± 0.0067 | 0.407 ± 0.011 | 0.426 ± 0.01 | 0.513 ± 0.028 |
| MALAVRVVICGA | 0.169 ± 0.0098 | 0.0365 ± 0.01 | 0.11 ± 0.097 | 0.134 ± 0.015 | 0.172 ± 0.011 | 0.103 ± 0.012 | 0.107 ± 0.019 | 0.134 ± 0.026 |
| FFGRWWWSFLLA | 0.364 ± 0.026 | 0.582 ± 0.038 | 0.634 ± 0.0095 | 0.538 ± 0.019 | 0.663 ± 0.012 | 0.262 ± 0.0098 | 0.261 ± 0.033 | 0.443 ± 0.026 |
| GGFHWCPSASRG | 0.711 ± 0.017 | 0.712 ± 0.01 | 0.755 ± 0.016 | 0.647 ± 0.031 | 0.7536 ± 0.0026 | 0.678 ± 0.02 | 0.6726 ± 0.0059 | 0.749 ± 0.014 |
| GWCLLRVLVLVW | 0.175 ± 0.022 | 0.0502 ± 0.035 | 0.043 ± 0.0082 | 0.0937 ± 0.023 | 0.107 ± 0.0087 | 0.104 ± 0.024 | 0.0811 ± 0.02 | 0.0921 ± 0.035 |
| FLPHLMCVFSFC | 0.382 ± 0.0022 | 0.456 ± 0.05 | 0.489 ± 0.01 | 0.394 ± 0.028 | 0.522 ± 0.0054 | 0.3324 ± 0.0015 | 0.334 ± 0.016 | 0.465 ± 0.0064 |

| Sequence | protein stability index (Saccharomyces cerevisiae [1]) | protein stability index (Saccharomyces cerevisiae [2]; [3]) | protein stability index (Saccharomyces cerevisiae [2]; [4]) | protein stability index (Saccharomyces cerevisiae [2]; [5]) | protein stability index (Saccharomyces cerevisiae [2]; [6]) | protein stability index (Saccharomyces cerevisiae [2]; [7]) | protein stability index (Saccharomyces cerevisiae [2]; [8]) | protein stability index (Saccharomyces cerevisiae [2]; [9]) |
| --- | --- | --- | --- | --- | --- | --- | --- | --- |
| ISSAGHNIRFLA | 0.23 ± 0.052 | 0.599 ± 0.052 | 0.698 ± 0.022 | 0.658 ± 0.025 | 0.715 ± 0.008 | 0.107 ± 0.025 | 0.129 ± 0.034 | 0.21 ± 0.018 |
| LFGFYFVRCLVW | 0.226 ± 0.0096 | 0.113 ± 0.0026 | 0.168 ± 0.022 | 0.178 ± 0.022 | 0.263 ± 0.012 | 0.16 ± 0.017 | 0.159 ± 0.0095 | 0.23 ± 0.0099 |
| HSRRRRPTPQSL | 0.571 ± 0.12 | 0.609 ± 0.047 | 0.65 ± 0.016 | 0.651 ± 0.036 | 0.636 ± 0.011 | 0.662 ± 0.014 | 0.64 ± 0.019 | 0.61 ± 0.016 |
| SLSFLRPLLLIF | 0.102 ± 0.012 | 0.0444 ± 0.014 | 0.0385 ± 0.012 | 0.12 ± 0.028 | 0.118 ± 0.0077 | 0.131 ± 0.0095 | 0.0702 ± 0.013 | 0.0953 ± 0.019 |
| AITHVILLVTPL | 0.507 ± 0.04 | 0.562 ± 0.02 | 0.5803 ± 0.0043 | 0.411 ± 0.025 | 0.61 ± 0.059 | 0.384 ± 0.0029 | 0.417 ± 0.022 | 0.552 ± 0.0087 |
| IVRDTECGIFYR | 0.731 ± 0.013 | 0.689 ± 0.05 | 0.75 ± 0.021 | 0.642 ± 0.016 | 0.735 ± 0.023 | 0.6512 ± 0.0058 | 0.6662 ± 0.006 | 0.723 ± 0.021 |
| IKCVPLVWRLTV | 0.272 ± 0.031 | 0.457 ± 0.0073 | 0.594 ± 0.045 | 0.534 ± 0.038 | 0.6384 ± 0.0023 | 0.109 ± 0.022 | 0.123 ± 0.02 | 0.1955 ± 0.001 |
| VGCHISAFSDLI | 0.762 ± 0.017 | 0.699 ± 0.022 | 0.744 ± 0.043 | 0.66 ± 0.023 | 0.752 ± 0.011 | 0.66 ± 0.037 | 0.665 ± 0.032 | 0.7489 ± 0.0017 |
| FHICTQLIFITC | 0.192 ± 0.025 | 0.06103 ± 0.00047 | 0.0651 ± 0.015 | 0.146 ± 0.029 | 0.198 ± 0.0078 | 0.114 ± 0.0037 | 0.127 ± 0.0084 | 0.145 ± 0.0024 |
| SYRFFLFLAVFV | 0.461 ± 0.021 | 0.555 ± 0.014 | 0.554 ± 0.048 | 0.451 ± 0.034 | 0.574 ± 0.0017 | 0.442 ± 0.017 | 0.44 ± 0.012 | 0.5379 ± 0.0032 |
| LCSVVIFCLVWG | 0.324 ± 0.022 | 0.117 ± 0.0048 | 0.263 ± 0.041 | 0.198 ± 0.03 | 0.343 ± 0.044 | 0.177 ± 0.008 | 0.182 ± 0.019 | 0.306 ± 0.0083 |
| PAMPTEPKSSSG | 0.7016 ± 0.0016 | 0.667 ± 0.019 | 0.7403 ± 0.0028 | 0.629 ± 0.015 | 0.716 ± 0.034 | 0.644 ± 0.015 | 0.667 ± 0.033 | 0.717 ± 0.0095 |
| VYCTFLFAYTLP | 0.483 ± 0.0062 | 0.556 ± 0.036 | 0.591 ± 0.032 | 0.443 ± 0.015 | 0.602 ± 0.0074 | 0.435 ± 0.0053 | 0.443 ± 0.015 | 0.59 ± 0.0096 |
| PSPRLSLPPRLP | 0.737 ± 0.022 | 0.631 ± 0.01 | 0.729 ± 0.029 | 0.677 ± 0.016 | 0.731 ± 0.017 | 0.71 ± 0.037 | 0.686 ± 0.024 | 0.6948 ± 0.002 |
| LHASCVYTILLV | 0.389 ± 0.0049 | 0.427 ± 0.035 | 0.4584 ± 0.0012 | 0.351 ± 0.03 | 0.499 ± 0.0092 | 0.323 ± 0.019 | 0.304 ± 0.019 | 0.451 ± 0.0082 |
| WFFLFGFVFFFR | 0.411 ± 0.077 | 0.36 ± 0.059 | 0.4002 ± 0.0035 | 0.352 ± 0.044 | 0.475 ± 0.019 | 0.433 ± 0.018 | 0.351 ± 0.039 | 0.4444 ± 0.0032 |
| YLYSSSPWILHG | 0.383 ± 0.045 | 0.673 ± 0.011 | 0.748 ± 0.035 | 0.664 ± 0.015 | 0.748 ± 0.033 | 0.274 ± 0.027 | 0.287 ± 0.044 | 0.52 ± 0.023 |
| DTHSRARAVLIA | 0.389 ± 0.086 | 0.656 ± 0.0091 | 0.719 ± 0.015 | 0.585 ± 0.016 | 0.704 ± 0.01 | 0.2366 ± 0.002 | 0.301 ± 0.019 | 0.509 ± 0.04 |
| ETCFSFVCSVQC | 0.398 ± 0.0044 | 0.328 ± 0.013 | 0.325 ± 0.025 | 0.284 ± 0.036 | 0.4019 ± 0.0023 | 0.221 ± 0.012 | 0.281 ± 0.02 | 0.385 ± 0.0093 |
